Series [1] deals with T1, 6151.
T1 construct: gene P6F0-P1F1-P5F2-P1F3; pET-22b, Ni-NTA purified
Description: fluorescence of released 4-methylumbelliferone, Michaelis-Menten fit. It counts as biochemical, Streptomyces sp. The note with it: 10 nM enzyme, 0.5% DMSO, 10 mM phosphate pH 7, 50 mM NaCl. The source says: fluorescence of released 4-methylumbelliferone, Michaelis-Menten fit on 6151 | We also tested the enzymes’ Michaelis–Menten kinetic properties

Substrate in series [2]: Cc1cc(=O)oc2cc(O[C@@H]3O[C@H](CO)[C@@H](O)[C@H](O)[C@H]3O)ccc12
Described as above. It counts as biochemical, Streptomyces sp. QM-B814. The note with it: 10 nM enzyme, 0.5% DMSO, 10 mM phosphate pH 7, 50 mM NaCl.

With `Cc1cc(=O)oc2cc(O[C@@H]3O[C@H](CO)[C@@H](O)[C@H](O)[C@H]3O)ccc12` [4-methylumbelliferyl-β-D-glucopyranoside], in series [1], the Km amounted to 214 µM.

B1: Bgl3 (Streptomyces sp. QM-B814) (protein)
chain: MVPAAQQTATAPDAALTFPEGFLWGSATASYQIEGAAAEDGRTPSIWDTYARTPGRVRNGDTGDVATDHYHRWREDVALMAELGLGAYRFSLAWPRIQPTGRGPALQKGLDFYRRLADELLAKGIQPVATLYHWDLPQELENAGGWPERATAERFAEYAAIAADALGDRVKTWTTLNEPWCSAFLGYGSGVHAPGRTDPVAALRAAHHLNLGHGLAVQALRDRLPADAQCSVTLNIHHVRPLTDSDADADAVRRIDALANRVFTGPMLQGAYPEDLVKDTAGLTDWSFVRDGDLRLAHQKLDFLGVNYYSPTLVSEADGSGTHNSDGHGRSAHSPWPGADRVAFHQPPGETTAMGWAVDPSGLYELLRRLSSDFPALPLVITENGAAFHDYADPEGNVNDPERIAYVRDHLAAVHRAIKDGSDVRGYFLWSLLDNFEWAHGYSKRFGAVYVDYPTGTRIPKASARWYAEVARTGVLPTA
notes: wild-type; pET-22b, E. coli BL21(DE3), Ni-NTA purified
As for B1, in series [2], the Km is 76 µM and the kcat amounted to 10.7 s⁻¹.

One may read the Km as the substrate concentration at which the rate is half of its maximum. One may read the kcat as the maximal rate divided by the concentration of active sites.
